Reference: paper PMC8461307 (2021)

Target: purified C3b (UniProt P01024 23-667; P01024 749-1663)
Assay: SPR

Sequence of purified C3b (P01024 23-667, chain 1 of 2): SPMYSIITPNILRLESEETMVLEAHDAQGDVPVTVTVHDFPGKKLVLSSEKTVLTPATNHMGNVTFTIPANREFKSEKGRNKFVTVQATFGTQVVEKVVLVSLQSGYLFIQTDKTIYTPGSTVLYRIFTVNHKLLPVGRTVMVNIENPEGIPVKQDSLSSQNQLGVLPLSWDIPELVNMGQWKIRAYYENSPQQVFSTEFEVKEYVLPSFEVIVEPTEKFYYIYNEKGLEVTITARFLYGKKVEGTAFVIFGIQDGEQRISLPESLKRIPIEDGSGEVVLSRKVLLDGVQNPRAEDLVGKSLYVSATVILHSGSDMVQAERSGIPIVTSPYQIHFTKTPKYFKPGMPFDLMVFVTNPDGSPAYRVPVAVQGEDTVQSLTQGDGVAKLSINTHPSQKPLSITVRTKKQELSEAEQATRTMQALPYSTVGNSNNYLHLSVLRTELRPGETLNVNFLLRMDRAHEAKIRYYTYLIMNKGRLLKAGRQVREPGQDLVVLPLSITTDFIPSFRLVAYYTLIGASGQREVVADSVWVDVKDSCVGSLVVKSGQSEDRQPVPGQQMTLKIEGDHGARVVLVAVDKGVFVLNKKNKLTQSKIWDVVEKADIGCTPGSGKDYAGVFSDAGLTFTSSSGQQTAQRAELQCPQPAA
Sequence of purified C3b (P01024 749-1663, chain 2 of 2): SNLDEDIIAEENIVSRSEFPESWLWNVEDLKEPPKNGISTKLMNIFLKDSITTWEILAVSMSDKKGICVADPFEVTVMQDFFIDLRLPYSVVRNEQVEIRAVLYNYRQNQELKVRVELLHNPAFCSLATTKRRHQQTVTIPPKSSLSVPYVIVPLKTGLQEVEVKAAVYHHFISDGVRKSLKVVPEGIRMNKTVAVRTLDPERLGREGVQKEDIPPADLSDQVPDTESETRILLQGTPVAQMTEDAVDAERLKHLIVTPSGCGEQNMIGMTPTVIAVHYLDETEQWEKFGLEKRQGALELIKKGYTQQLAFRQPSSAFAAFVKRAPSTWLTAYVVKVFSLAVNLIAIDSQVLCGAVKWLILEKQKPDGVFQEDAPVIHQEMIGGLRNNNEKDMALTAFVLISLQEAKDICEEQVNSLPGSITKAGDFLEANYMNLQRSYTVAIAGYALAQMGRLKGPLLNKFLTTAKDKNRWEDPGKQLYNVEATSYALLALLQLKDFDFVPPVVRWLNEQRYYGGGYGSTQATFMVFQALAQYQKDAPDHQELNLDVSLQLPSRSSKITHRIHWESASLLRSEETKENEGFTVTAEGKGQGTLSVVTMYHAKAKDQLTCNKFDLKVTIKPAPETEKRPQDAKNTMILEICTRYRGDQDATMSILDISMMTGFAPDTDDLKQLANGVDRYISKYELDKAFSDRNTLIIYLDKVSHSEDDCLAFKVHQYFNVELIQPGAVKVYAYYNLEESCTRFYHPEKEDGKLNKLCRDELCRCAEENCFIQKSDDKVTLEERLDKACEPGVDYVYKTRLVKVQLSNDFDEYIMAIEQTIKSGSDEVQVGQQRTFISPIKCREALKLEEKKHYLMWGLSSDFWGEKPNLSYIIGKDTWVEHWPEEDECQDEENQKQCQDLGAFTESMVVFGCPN

koff: 0.141 s⁻¹
B1: recombinant wild-type Factor H-related protein 5 (FHR-5WT) (natural protein)
chain: EGTLCDFPKIHHGFLYDEEDYNPFSQVPTGEVFYYSCEYNFVSPSKSFWTRITCTEEGWSPTPKCLRMCSFPFVKNGHSESSGLIHLEGDTVQIICNTGYSLQNNEKNISCVERGWSTPPICSFTKGECHVPILEANVDAQPKKESYKVGDVLKFSCRKNLIRVGSDSVQCYQFGWSPNFPTCKGQVRSCGPPPQLSNGEVKEIRKEEYGHNEVVEYDCNPNFIINGPKKIQCVDGEWTTLPTCVEQVKTCGYIPELEYGYVQPSVPPYQHGVSVEVNCRNEYAMIGNNMITCINGIWTELPMCVATHQLKRCKIAGVNIKTLLKLSGKEFNHNSRIRYRCSDIFRYRHSVCINGKWNPEVDCTEKREQFCPPPPQIPNAQNMTTTVNYQDGEKVAVLCKENYLLPEAKEIVCKDGRWQSLPRCVESTAYCGPPPSINNGDTTSFPLSVYPPGSTVTYRCQSFYKLQGSVTVTCRNKQWSEPPRCLDPCVVSEENMNKNNIQLKWRNDGKLYAKTGDAVEFQCKFPHKAMISSPPFRAICQEGKFEYPICE
